Test results: paper PMC6807164, “The lipid transfer protein Saposin B does not directly bind CD1d for lipid antigen loading” (Wellcome Open Research, 2019)

Assays:
[1] = molecular target: CD14 (Homo sapiens) (UniProt P08571); conditions: cited from earlier work
[2] = molecular target: Apolipoprotein B (Homo sapiens) (UniProt P04114); conditions: cited from earlier work
[3] = molecular target: T1, CD1d-β2m complex (glycosylated CD1d-H6 with untagged β2m) (human, UniProt P15813 20-301; P61769 21-119, glycosylated (N-linked glycans from expression in HEK293F)); assay: equilibrium binding assay (depletion of prey from the supernatant, no wash steps); CD1d-β2m on Ni-NTA agarose beads at 0-40 μM, SapB at 680 nM; 50 mM HEPES pH 7.0, 150 mM NaCl, 0.05% digitonin, 2.5 mM CaCl2, 2.5 mM MgCl2; 1 hour at room temperature; unbound SapB detected by SYPRO Ruby; both proteins with the endogenous lipids they co-purify with; conditions: both partners purified
T1 construct: CD1d, human, extracellular domain, residues 20-301 of UniProt P15813; expressed behind the vector's N-terminal secretion signal; β-2-microglobulin, human, residues 21-119 of UniProt P61769; untagged; Carries endogenous human lipids as purified; The results call β2m full-length, the methods give residues 21-119; also called CD1d-H 6-β 2m; gCD1d; not shown: His6, C-terminal, kept

CD14 (Homo sapiens), sequence (P08571 20-345): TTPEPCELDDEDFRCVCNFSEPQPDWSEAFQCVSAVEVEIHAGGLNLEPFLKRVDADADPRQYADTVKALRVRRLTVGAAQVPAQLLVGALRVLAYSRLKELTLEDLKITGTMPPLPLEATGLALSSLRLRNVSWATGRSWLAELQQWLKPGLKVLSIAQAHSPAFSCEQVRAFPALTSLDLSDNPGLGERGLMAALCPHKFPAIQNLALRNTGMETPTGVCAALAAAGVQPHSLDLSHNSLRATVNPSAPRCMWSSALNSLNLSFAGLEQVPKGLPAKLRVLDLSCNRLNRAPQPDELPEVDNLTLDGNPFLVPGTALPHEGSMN
Apolipoprotein B (Homo sapiens), sequence (P04114 28-2179): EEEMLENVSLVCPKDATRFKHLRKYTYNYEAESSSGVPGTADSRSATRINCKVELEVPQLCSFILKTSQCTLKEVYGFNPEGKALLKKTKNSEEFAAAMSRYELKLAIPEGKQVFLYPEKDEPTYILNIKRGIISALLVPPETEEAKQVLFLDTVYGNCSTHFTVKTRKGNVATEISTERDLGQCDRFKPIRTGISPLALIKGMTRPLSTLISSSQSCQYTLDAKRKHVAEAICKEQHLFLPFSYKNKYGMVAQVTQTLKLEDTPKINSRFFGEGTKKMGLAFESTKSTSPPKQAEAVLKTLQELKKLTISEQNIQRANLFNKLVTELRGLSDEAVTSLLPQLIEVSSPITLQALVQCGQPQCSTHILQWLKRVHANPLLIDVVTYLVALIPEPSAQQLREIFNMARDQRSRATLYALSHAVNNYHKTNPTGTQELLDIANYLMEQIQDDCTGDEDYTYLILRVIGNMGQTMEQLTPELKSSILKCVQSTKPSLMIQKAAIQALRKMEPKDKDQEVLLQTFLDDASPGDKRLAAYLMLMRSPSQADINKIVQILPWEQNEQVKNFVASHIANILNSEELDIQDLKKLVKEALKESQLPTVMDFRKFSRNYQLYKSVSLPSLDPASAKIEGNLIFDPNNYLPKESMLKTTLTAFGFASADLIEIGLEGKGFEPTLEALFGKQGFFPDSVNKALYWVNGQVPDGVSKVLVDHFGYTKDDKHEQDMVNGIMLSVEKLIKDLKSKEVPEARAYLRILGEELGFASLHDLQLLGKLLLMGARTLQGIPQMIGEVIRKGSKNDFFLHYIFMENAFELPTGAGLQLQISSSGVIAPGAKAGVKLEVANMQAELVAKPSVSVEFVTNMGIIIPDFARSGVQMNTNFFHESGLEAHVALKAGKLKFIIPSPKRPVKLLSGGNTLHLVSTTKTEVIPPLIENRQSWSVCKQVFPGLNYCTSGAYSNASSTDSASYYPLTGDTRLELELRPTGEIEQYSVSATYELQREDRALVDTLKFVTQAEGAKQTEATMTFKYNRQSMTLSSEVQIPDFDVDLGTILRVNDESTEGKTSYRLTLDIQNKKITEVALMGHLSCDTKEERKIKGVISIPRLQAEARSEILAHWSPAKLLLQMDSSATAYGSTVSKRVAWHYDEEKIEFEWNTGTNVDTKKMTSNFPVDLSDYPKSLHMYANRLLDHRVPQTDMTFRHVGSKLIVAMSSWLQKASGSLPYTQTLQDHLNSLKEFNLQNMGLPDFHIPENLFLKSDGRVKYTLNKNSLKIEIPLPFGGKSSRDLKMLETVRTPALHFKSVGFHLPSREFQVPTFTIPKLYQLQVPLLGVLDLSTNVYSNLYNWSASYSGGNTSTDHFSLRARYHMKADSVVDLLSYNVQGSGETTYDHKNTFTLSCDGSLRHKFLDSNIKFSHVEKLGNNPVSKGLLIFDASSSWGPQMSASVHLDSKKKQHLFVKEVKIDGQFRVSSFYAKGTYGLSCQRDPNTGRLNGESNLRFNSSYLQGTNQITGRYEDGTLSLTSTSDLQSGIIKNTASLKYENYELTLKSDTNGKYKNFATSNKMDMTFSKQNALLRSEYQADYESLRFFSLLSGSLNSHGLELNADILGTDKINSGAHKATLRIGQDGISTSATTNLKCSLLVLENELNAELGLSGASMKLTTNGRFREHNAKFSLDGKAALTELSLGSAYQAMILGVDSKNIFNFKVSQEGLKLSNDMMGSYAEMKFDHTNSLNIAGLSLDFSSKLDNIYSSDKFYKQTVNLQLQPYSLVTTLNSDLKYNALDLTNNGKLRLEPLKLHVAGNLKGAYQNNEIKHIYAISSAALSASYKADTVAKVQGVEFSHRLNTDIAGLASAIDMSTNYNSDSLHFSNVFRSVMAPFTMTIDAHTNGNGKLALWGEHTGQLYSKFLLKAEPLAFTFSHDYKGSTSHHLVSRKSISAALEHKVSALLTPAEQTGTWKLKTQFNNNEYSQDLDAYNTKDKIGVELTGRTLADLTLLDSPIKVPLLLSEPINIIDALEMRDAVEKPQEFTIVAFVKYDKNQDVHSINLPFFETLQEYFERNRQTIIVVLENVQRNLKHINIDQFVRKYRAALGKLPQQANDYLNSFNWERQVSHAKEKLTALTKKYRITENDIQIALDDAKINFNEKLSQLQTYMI

LPS binding protein (LBP) (from UniProt P18428)
Kd [1]: 5.52 nM

Microsomal Triglyceride Transfer protein (from UniProt P55157)
Kd [2]: 20 nM

B1: Saposin B, untagged, expressed in E. coli (unglycosylated) (natural protein, human, UniProt P07602 195-274, looked up)
chain: GDVCQDCIQMVTDIQTAVRTNSTFVQALVEHVKEECDRLGPGMADICKNYISQYSEIAIQMMMHMQPKEICALVGFCDEV
notes: Saposin B, the segment of human prosaposin (PSAP) residues 195-274, UniProt P07602; Cloned into pET-15b by NcoI and XhoI to give untagged protein; Co-purifies with E. coli lipid; also called SapB; ugSapB; source: E. coli Origami (DE3), purified (heat treatment, anion exchange, SEC)
Kd [3]: > 40000 nM
